{"source": "paper PMC3573117", "about": "“Identification of the SlmA Active Site Responsible for Blocking Bacterial Cytokinetic Ring Assembly over the Chromosome” (PLoS Genetics, 2013)", "binders": {"B1": {"name": "SlmA(WT) (natural protein, Escherichia coli, UniProt P0C093 1-198, looked up)", "chain": "MAEKQTAKRNRREEILQSLALMLESSDGSQRITTAKLAASVGVSEAALYRHFPSKTRMFDSLIEFIEDSLITRINLILKDEKDTTARLRLIVLLLLGFGERNPGLTRILTGHALMFEQDRLQGRINQLFERIEAQLRQVLREKRMREGEGYTTDETLLASQILAFCEGMLSRFVRSEFKYRPTDDFDARWPLIAAQLQ", "notes": "SlmA, nucleoid occlusion factor, TetR-like protein of Escherichia coli; Stood in the assay with SBS17 DNA (SlmA-SBS complex); Serves also as the parent for mutation effects seen with the BACTH fusions; also called wild-type SlmA"}}, "target": "T1, FtsZ(D212N) (UniProt P0A9A6 1-383, D212N)", "T1 construct": "FtsZ, tubulin-like cell division protein, GTPase-defective derivative D212N; Polymerised with 5 mM GTP in the assay; also called FtsZ(D212N) polymers; FtsZ(D212N) protofilaments", "T1 sequence (looked up)": "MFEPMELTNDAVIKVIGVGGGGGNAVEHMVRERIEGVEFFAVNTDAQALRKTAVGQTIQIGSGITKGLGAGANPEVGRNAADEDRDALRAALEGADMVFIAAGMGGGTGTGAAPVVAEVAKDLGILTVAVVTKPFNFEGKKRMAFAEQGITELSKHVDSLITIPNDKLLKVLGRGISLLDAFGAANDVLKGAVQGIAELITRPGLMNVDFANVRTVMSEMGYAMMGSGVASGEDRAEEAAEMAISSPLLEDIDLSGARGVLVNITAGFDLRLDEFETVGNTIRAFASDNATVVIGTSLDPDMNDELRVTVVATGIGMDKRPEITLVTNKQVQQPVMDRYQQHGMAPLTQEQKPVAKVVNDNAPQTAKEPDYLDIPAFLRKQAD", "test": "co-sedimentation; FtsZ(D212N) 5 µM with GTP 5 mM, SBS17 DNA 2.5 µM and SlmA derivative 5 µM, room temperature 15 min; 80,000 rpm, TLA100.2 rotor, 15 min; supernatant and pellet on SDS-PAGE, Coomassie", "settings": "both partners purified"}
{"binder": "B1", "values": [{"measurement": "binding result", "value": "binds"}]}
